In the supplement of paper PMC5998384:

What was measured:
HeLa Kyoto [1] = test: solubility in G1/S (NP-40 vs SDS abundance) (log2 ratio); higher = more soluble; settings: cell cycle stage: G1/S
HeLa Kyoto [2] = test: melting temperature (median over replicates), in situ; higher = more thermally stable
HeLa Kyoto [3] = test: solubility change mitosis vs G1/S (difference of NP-40 vs SDS log2 ratios) (log2 ratio difference); higher = more soluble in mitosis
HeLa Kyoto [4] = test: thermal stability score vs G1/S (z-score of summed log2 fold changes over temperatures); higher = more thermally stable than in G1/S
[5] = cell cycle stage: early G1 (4.5 h after nocodazole release)
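Throughout, for melting temperature (median over replicates), in situ: HeLa Kyoto cells synchronized by double thymidine or nocodazole block, proteins quantified by TMT10plex mass spectrometry, three independent biological replicates.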
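Throughout, for solubility change mitosis vs G1/S (difference of NP-40 vs SDS log2 ratios): synchronized HeLa Kyoto cells (double thymidine block for G1/S, nocodazole release for mitosis), protein amounts in NP-40 versus SDS lysates quantified by mass spectrometry, three biological replicates.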
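Throughout, for solubility in G1/S (NP-40 vs SDS abundance): HeLa Kyoto cells arrested at G1/S by double thymidine block, proteins quantified by TMT10plex mass spectrometry in mild NP-40 versus SDS extracts, three biological replicates.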
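Throughout, for thermal stability score vs G1/S (z-score of summed log2 fold changes over temperatures): synchronized HeLa Kyoto cells, proteins quantified by TMT10plex mass spectrometry, three biological replicates, mitosis taken 0.5 h after nocodazole release, G1/S directly after double thymidine block.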

Row | Sequence | solubility in G1/S (log2) (HeLa Kyoto [1]) | melting temperature (HeLa Kyoto [2]; cell cycle stage: G1/S) [°C] | melting temperature (HeLa Kyoto [2]; cell cycle stage: mitosis) [°C] | solubility change mitosis (log2) (HeLa Kyoto [3]) | thermal stability score (HeLa Kyoto [4]; [5]) | thermal stability score (HeLa Kyoto [4]; cell cycle stage: mitosis)
1 | MSRRYDSRTTIFSPEGRLYQVEYAMEAIGHAGTCLGILANDGVLLAAERRNIHKLLDEVFFSEKIYKLNEDMACSVAGITSDANVLTNELRLIAQRYLLQYQEPIPCEQLVTALCDIKQAYTQFGGKRPFGVSLLYIGWDKHYGFQLYQSDPSGNYGGWKATCIGNNSAAAVSMLKQDYKEGEMTLKSALALAIKVLNKTMDVSKLSAEKVEIATLTRENGKTVIRVLKQKEVEQLIKKHEEEEAKAEREKKEKEQKEKDK [PSMA4] | 0.45 | 59.5 | 60.5 | -0.0614 | -0.647 | -0.541
2 | MVKLDIHTLAHHLKQERLYVNSEKQLIQRLNADVLKTAEKLYRTAWIAKQQRINLDRLIITSAEASPAECCQHAKILEDTQFVDGYKQLGFQETAYGEFLSRLRENPRLIASSLVAGEKLNQENTQSVIYTVFTSLYGNCIMQEDESYLLQVLRYLIEFELKESDNPRRLLRRGTCAFSILFKLFSEGLFSAKLFLTATLHEPIMQLLVEDEDHLETDPNKLIERFSPSQQEKLFGEKGSDRFRQKVQEMVESNEAKLVALVNKFIGYLKQNTYCFPHSLRWIVSQMYKTLSCVDRLEVGEVRAMCTDLLLACFICPAVVNPEQYGIISDAPINEVARFNLMQVGRLLQQLAMTGSEEGDPRTKSSLGKFDKSCVAAFLDVVIGGRAVETPPLSSVNLLEGLSRTVVYITYSQLITLVNFMKSVMSGDQLREDRMALDNLLANLPPAKPGKSSSLEMTPYNTPQLSPATTPANKKNRLPIATRSRSRTNMLMDLHMDHEGSSQETIQEVQPEEVLVISLGTGPQLTPGMMSENEVLNMQLSDGGQGDVPVDENKLHGKPDKTLRFSLCSDNLEGISEGPSNRSNSVSSLDLEGESVSELGAGPSGSNGVEALQLLEHEQATTQDNLDDKLRKFEIRDMMGLTDDRDISETVSETWSTDVLGSDFDPNIDEDRLQEIAGAAAENMLGSLLCLPGSGSVLLDPCTGSTISETTSEAWSVEVLPSDSEAPDLKQEERLQELESCSGLGSTSDDTDVREVSSRPSTPGLSVVSGISATSEDIPNKIEDLRSECSSDFGGKDSVTSPDMDEITHGAHQLTSPPSQSESLLAMFDPLSSHEGASAVVRPKVHYARPSHPPPDPPILEGAVGGNEARLPNFGSHVLTPAEMEAFKQRHSYPERLVRSRSSDIVSSVRRPMSDPSWNRRPGNEERELPPAAAIGATSLVAAPHSSSSSPSKDSSRGETEERKDSDDEKSDRNRPWWRKRFVSAMPKAPIPFRKKEKQEKDKDDLGPDRFSTLTDDPSPRLSAQAQVAEDILDKYRNAIKRTSPSDGAMANYESTGDNHDRDLSSKLLYHSDKEVMGDGESAHDSPRDEALQNISADDLPDSASQAAHPQDSAFSYRDAKKKLRLALCSADSVAFPVLTHSTRNGLPDHTDPEDNEIVCFLKVQIAEAINLQDKNLMAQLQETMRCVCRFDNRTCRKLLASIAEDYRKRAPYIAYLTRCRQGLQTTQAHLERLLQRVLRDKEVANRYFTTVCVRLLLESKEKKIREFIQDFQKLTAADDKTAQVEDFLQFLYGAMAQDVIWQNASEEQLQDAQLAIERSVMNRIFKLAFYPNQDGDILRDQVLHEHIQRLSKVVTANHRALQIPEVYLREAPWPSAQSEIRTISAYKTPRDKVQCILRMCSTIMNLLSLANEDSVPGADDFVPVLVFVLIKANPPCLLSTVQYISSFYASCLSGEESYWWMQFTAAVEFIKTIDDRK [GAPVD1] | -0.136 | 49.5 | 49.8 | -0.131 | 1.88 | 3.33
3 | MGVQPPNFSWVLPGRLAGLALPRLPAHYQFLLDLGVRHLVSLTERGPPHSDSCPGLTLHRLRIPDFCPPAPDQIDRFVQIVDEANARGEAVGVHCALGFGRTGTMLACYLVKERGLAAGDAIAEIRRLRPGSIETYEQEKAVFQFYQRTK [DUSP23] | 0.00547 | 52.5 | 52.9 | -0.112 | 0.571 | -0.468
4 | MEETMKLATMEDTVEYCLFLIPDESRDSDKHKEILQKYIERIITRFAPMLVPYIWQNQPFNLKYKPGKGGVPAHMFGVTKFGDNIEDEWFIVYVIKQITKEFPELVARIEDNDGEFLLIEAADFLPKWLDPENSTNRVFFCHGELCIIPAPRKSGAESWLPTTPPTIPQALNIITAHSEKILASESIRAAVNRRIRGYPEKIQASLHRAHCFLPAGIVAVLKQRPRLVAAAVQAFYLRDPIDLRACRVFKTFLPETRIMTSVTFTKCLYAQLVQQRFVPDRRSGYRLPPPSDPQYRAHELGMKLAHGFEILCSKCSPHFSDCKKSLVTASPLWASFLESLKKNDYFKGLIEGSAQYRERLEMAENYFQLSVDWPESSLAMSPGEEILTLLQTIPFDIEDLKKEAANLPPEDDDQWLDLSPDQLDQLLQEAVGKKESESVSKEEKEQNYDLTEVSESMKAFISKVSTHKGAELPREPSEAPITFDADSFLNYFDKILGPRPNESDSDDLDDEDFECLDSDDDLDFETHEPGEEASLKGTLDNLKSYMAQMDQELAHTCISKSFTTRNQVEPVSQTTDNNSDEEDSGTGESVMAPVDVDLNLVSNILESYSSQAGLAGPASNLLQSMGVQLPDNTDHRPTSKPTKN [ECD] | 0.116 | 50.8 | 50 | -0.113 | 0.346 | 0.595
5 | MWRLRRAAVACEVCQSLVKHSSGIKGSLPLQKLHLVSRSIYHSHHPTLKLQRPQLRTSFQQFSSLTNLPLRKLKFSPIKYGYQPRRNFWPARLATRLLKLRYLILGSAVGGGYTAKKTFDQWKDMIPDLSEYKWIVPDIVWEIDEYIDFEKIRKALPSSEDLVKLAPDFDKIVESLSLLKDFFTSGSPEETAFRATDRGSESDKHFRKVSDKEKIDQLQEELLHTQLKYQRILERLEKENKELRKLVLQKDDKGIHHRKLKKSLIDMYSEVLDVLSDYDASYNTQDHLPRVVVVGDQSAGKTSVLEMIAQARIFPRGSGEMMTRSPVKVTLSEGPHHVALFKDSSREFDLTKEEDLAALRHEIELRMRKNVKEGCTVSPETISLNVKGPGLQRMVLVDLPGVINTVTSGMAPDTKETIFSISKAYMQNPNAIILCIQDGSVDAERSIVTDLVSQMDPHGRRTIFVLTKVDLAEKNVASPSRIQQIIEGKLFPMKALGYFAVVTGKGNSSESIEAIREYEEEFFQNSKLLKTSMLKAHQVTTRNLSLAVSDCFWKMVRESVEQQADSFKATRFNLETEWKNNYPRLRELDRNELFEKAKNEILDEVISLSQVTPKHWEEILQQSLWERVSTHVIENIYLPAAQTMNSGTFNTTVDIKLKQWTDKQLPNKAVEVAWETLQEEFSRFMTEPKGKEHDDIFDKLKEAVKEESIKRHKWNDFAEDSLRVIQHNALEDRSISDKQQWDAAIYFMEEALQARLKDTENAIENMVGPDWKKRWLYWKNRTQEQCVHNETKNELEKMLKCNEEHPAYLASDEITTVRKNLESRGVEVDPSLIKDTWHQVYRRHFLKTALNHCNLCRRGFYYYQRHFVDSELECNDVVLFWRIQRMLAITANTLRQQLTNTEVRRLEKNVKEVLEDFAEDGEKKIKLLTGKRVQLAEDLKKVREIQEKLDAFIEALHQEK [OPA1] | -0.149 | 51.3 | 51 | -0.0649 | 1.61 | 0.517
6 | MPKKAKPTGSGKEEGPAPCKQMKLEAAGGPSALNFDSPSSLFESLISPIKTETFFKEFWEQKPLLIQRDDPALATYYGSLFKLTDLKSLCSRGMYYGRDVNVCRCVNGKKKVLNKDGKAHFLQLRKDFDQKRATIQFHQPQRFKDELWRIQEKLECYFGSLVGSNVYITPAGSQGLPPHYDDVEVFILQLEGEKHWRLYHPTVPLAREYSVEAEERIGRPVHEFMLKPGDLLYFPRGTIHQADTPAGLAHSTHVTISTYQNNSWGDFLLDTISGLVFDTAKEDVELRTGIPRQLLLQVESTTVATRRLSGFLRTLADRLEGTKELLSSDMKKDFIMHRLPPYSAGDGAELSTPGGKLPRLDSVVRLQFKDHIVLTVLPDQDQSDEAQEKMVYIYHSLKNSRETHMMGNEEETEFHGLRFPLSHLDALKQIWNSPAISVKDLKLTTDEEKESLVLSLWTECLIQVV [MINA] | -0.11 | 53.4 | 51.4 | -0.0273 | 3.05 | 0.952
